Data from the supplement of paper PMC10567573.

B1: FBXO3 (parent)
chain: FIDTYSDVGRYIDHYAAIKKAWDD
B2: SEC22B (parent)
chain: FPKKLAFAYLEDLHSEFDEQHGKK
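Also: lentivirally expressed fusions sorted by FACS into six bins by GFP to DsRed ratio, PSI derived from sequencing read proportions per bin multiplied by bin number.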

Variants of: B1
Test: protein stability index of a GFP-peptide fusion (GPS, HEK-293T) (PSI 1-6); higher = more stable
Conditions: c terminus: a fixed tail appended
For TIDTYSDVGRYIDHYAAIKKAWDD [F1T], the protein stability index was 3.74.
With QIDTYSDVGRYIDHYAAIKKAWDD [F1Q] the protein stability index was 3.41.
PIDTYSDVGRYIDHYAAIKKAWDD [F1P] showed a protein stability index of 3.62.
In the case of GIDTYSDVGRYIDHYAAIKKAWDD [F1G], the protein stability index is reported as 3.05.
For KIDTYSDVGRYIDHYAAIKKAWDD [F1K], the protein stability index was 2.47.
For EIDTYSDVGRYIDHYAAIKKAWDD [F1E], the protein stability index was 3.21.
For VIDTYSDVGRYIDHYAAIKKAWDD [F1V], the protein stability index was 3.28.
WIDTYSDVGRYIDHYAAIKKAWDD [F1W] gave a protein stability index of 2.58.
RIDTYSDVGRYIDHYAAIKKAWDD [F1R] gave a protein stability index of 3.09.
IIDTYSDVGRYIDHYAAIKKAWDD [F1I] gave a protein stability index of 2.56.
Work on YIDTYSDVGRYIDHYAAIKKAWDD [F1Y] yielded a protein stability index of 2.09.
In the case of AIDTYSDVGRYIDHYAAIKKAWDD [F1A], the protein stability index is reported as 3.39.
Work on LIDTYSDVGRYIDHYAAIKKAWDD [F1L] yielded a protein stability index of 3.22.
Work on NIDTYSDVGRYIDHYAAIKKAWDD [F1N] yielded a protein stability index of 3.57.
With HIDTYSDVGRYIDHYAAIKKAWDD [F1H] the protein stability index was 3.58.
In the case of MIDTYSDVGRYIDHYAAIKKAWDD [F1M], the protein stability index is reported as 2.79.
For SIDTYSDVGRYIDHYAAIKKAWDD [F1S], the protein stability index was 3.64.
In the case of DIDTYSDVGRYIDHYAAIKKAWDD [F1D], the protein stability index is reported as 3.74.
CIDTYSDVGRYIDHYAAIKKAWDD [F1C] gave a protein stability index of 2.87.
Variant FWDTYSDVGRYIDHYAAIKKAWDD [I2W] has a protein stability index of 2.45.
Variant FGDTYSDVGRYIDHYAAIKKAWDD [I2G] has a protein stability index of 3.01.
FPDTYSDVGRYIDHYAAIKKAWDD [I2P] gave a protein stability index of 3.
Variant FEDTYSDVGRYIDHYAAIKKAWDD [I2E] has a protein stability index of 3.59.
In the case of FNDTYSDVGRYIDHYAAIKKAWDD [I2N], the protein stability index is reported as 3.21.
In the case of FDDTYSDVGRYIDHYAAIKKAWDD [I2D], the protein stability index is reported as 3.65.
Work on FYDTYSDVGRYIDHYAAIKKAWDD [I2Y] yielded a protein stability index of 2.5.
Work on FSDTYSDVGRYIDHYAAIKKAWDD [I2S] yielded a protein stability index of 3.14.
Work on FQDTYSDVGRYIDHYAAIKKAWDD [I2Q] yielded a protein stability index of 2.52.
With FRDTYSDVGRYIDHYAAIKKAWDD [I2R] the protein stability index was 3.03.
With FKDTYSDVGRYIDHYAAIKKAWDD [I2K] the protein stability index was 3.03.
In the case of FLDTYSDVGRYIDHYAAIKKAWDD [I2L], the protein stability index is reported as 2.39.
FADTYSDVGRYIDHYAAIKKAWDD [I2A] gave a protein stability index of 2.45.
Work on FFDTYSDVGRYIDHYAAIKKAWDD [I2F] yielded a protein stability index of 2.63.
With FTDTYSDVGRYIDHYAAIKKAWDD [I2T] the protein stability index was 2.32.
FVDTYSDVGRYIDHYAAIKKAWDD [I2V] gave a protein stability index of 2.1.
With FHDTYSDVGRYIDHYAAIKKAWDD [I2H] the protein stability index was 2.47.
In the case of FMDTYSDVGRYIDHYAAIKKAWDD [I2M], the protein stability index is reported as 2.41.
Work on FCDTYSDVGRYIDHYAAIKKAWDD [I2C] yielded a protein stability index of 2.4.
For FIATYSDVGRYIDHYAAIKKAWDD [D3A], the protein stability index was 2.

Variants of: B2
Test: as above
Conditions: c terminus: a fixed tail appended
Variant FPKKLAFAYLEDLHSEFDEQHGKD [K24D] has a protein stability index of 2.68.
Work on FPKKLAFAYLEDLHSEFDEQHGKT [K24T] yielded a protein stability index of 2.5.
FPKKLAFAYLEDLHSEFDEQHGKS [K24S] gave a protein stability index of 2.8.
Variant FPKKLAFAYLEDLHSEFDEQHGKF [K24F] has a protein stability index of 2.21.
FPKKLAFAYLEDLHSEFDEQHGKE [K24E] gave a protein stability index of 2.83.
FPKKLAFAYLEDLHSEFDEQHGKW [K24W] showed a protein stability index of 2.54.
In the case of FPKKLAFAYLEDLHSEFDEQHGKC [K24C], the protein stability index is reported as 2.23.
Variant FPKKLAFAYLEDLHSEFDEQHGKV [K24V] has a protein stability index of 2.49.
FPKKLAFAYLEDLHSEFDEQHGKM [K24M] showed a protein stability index of 2.36.
In the case of FPKKLAFAYLEDLHSEFDEQHGKP [K24P], the protein stability index is reported as 2.29.
In the case of FPKKLAFAYLEDLHSEFDEQHGKY [K24Y], the protein stability index is reported as 2.49.
Work on FPKKLAFAYLEDLHSEFDEQHGKI [K24I] yielded a protein stability index of 1.89.
FPKKLAFAYLEDLHSEFDEQHGKR [K24R] gave a protein stability index of 2.9.
Work on FPKKLAFAYLEDLHSEFDEQHGKN [K24N] yielded a protein stability index of 2.32.
Work on FPKKLAFAYLEDLHSEFDEQHGKH [K24H] yielded a protein stability index of 2.59.
Variant FPKKLAFAYLEDLHSEFDEQHGKQ [K24Q] has a protein stability index of 2.9.
In the case of FPKKLAFAYLEDLHSEFDEQHGKL [K24L], the protein stability index is reported as 2.12.
Variant FPKKLAFAYLEDLHSEFDEQHGKA [K24A] has a protein stability index of 2.72.
Variant FPKKLAFAYLEDLHSEFDEQHGKG [K24G] has a protein stability index of 2.11.
For FPKKLAFAYLEDLHSEFDEQHGVK [K23V], the protein stability index was 2.67.
For FPKKLAFAYLEDLHSEFDEQHGHK [K23H], the protein stability index was 2.63.
For FPKKLAFAYLEDLHSEFDEQHGSK [K23S], the protein stability index was 2.7.
With FPKKLAFAYLEDLHSEFDEQHGPK [K23P] the protein stability index was 2.33.
Work on FPKKLAFAYLEDLHSEFDEQHGFK [K23F] yielded a protein stability index of 2.07.
Variant FPKKLAFAYLEDLHSEFDEQHGDK [K23D] has a protein stability index of 3.12.
Work on FPKKLAFAYLEDLHSEFDEQHGWK [K23W] yielded a protein stability index of 2.38.
For FPKKLAFAYLEDLHSEFDEQHGEK [K23E], the protein stability index was 2.81.
Work on FPKKLAFAYLEDLHSEFDEQHGCK [K23C] yielded a protein stability index of 2.3.
FPKKLAFAYLEDLHSEFDEQHGLK [K23L] gave a protein stability index of 2.53.
FPKKLAFAYLEDLHSEFDEQHGQK [K23Q] showed a protein stability index of 2.81.
Work on FPKKLAFAYLEDLHSEFDEQHGAK [K23A] yielded a protein stability index of 2.36.
FPKKLAFAYLEDLHSEFDEQHGYK [K23Y] gave a protein stability index of 2.2.
FPKKLAFAYLEDLHSEFDEQHGIK [K23I] gave a protein stability index of 2.66.
Variant FPKKLAFAYLEDLHSEFDEQHGMK [K23M] has a protein stability index of 2.25.
For FPKKLAFAYLEDLHSEFDEQHGNK [K23N], the protein stability index was 2.66.
FPKKLAFAYLEDLHSEFDEQHGRK [K23R] showed a protein stability index of 2.34.
FPKKLAFAYLEDLHSEFDEQHGTK [K23T] gave a protein stability index of 1.81.
For FPKKLAFAYLEDLHSEFDEQHGGK [K23G], the protein stability index was 2.27.
Variant FPKKLAFAYLEDLHSEFDEQHSKK [G22S] has a protein stability index of 2.6.
FPKKLAFAYLEDLHSEFDEQHFKK [G22F] gave a protein stability index of 1.97.
With FPKKLAFAYLEDLHSEFDEQHQKK [G22Q] the protein stability index was 2.36.
With FPKKLAFAYLEDLHSEFDEQHRKK [G22R] the protein stability index was 2.51.
With FPKKLAFAYLEDLHSEFDEQHYKK [G22Y] the protein stability index was 1.98.
For FPKKLAFAYLEDLHSEFDEQHPKK [G22P], the protein stability index was 2.48.
For FPKKLAFAYLEDLHSEFDEQHHKK [G22H], the protein stability index was 3.
Work on FPKKLAFAYLEDLHSEFDEQHDKK [G22D] yielded a protein stability index of 2.15.
In the case of FPKKLAFAYLEDLHSEFDEQHEKK [G22E], the protein stability index is reported as 2.56.
For FPKKLAFAYLEDLHSEFDEQHNKK [G22N], the protein stability index was 2.71.
Variant FPKKLAFAYLEDLHSEFDEQHVKK [G22V] has a protein stability index of 2.12.
FPKKLAFAYLEDLHSEFDEQHIKK [G22I] gave a protein stability index of 2.25.
Variant FPKKLAFAYLEDLHSEFDEQHWKK [G22W] has a protein stability index of 2.23.
Variant FPKKLAFAYLEDLHSEFDEQHLKK [G22L] has a protein stability index of 2.34.
In the case of FPKKLAFAYLEDLHSEFDEQHKKK [G22K], the protein stability index is reported as 2.23.
In the case of FPKKLAFAYLEDLHSEFDEQHMKK [G22M], the protein stability index is reported as 2.62.
FPKKLAFAYLEDLHSEFDEQHTKK [G22T] gave a protein stability index of 2.43.
